± gives the uncertainty stated by the source.

The data set is described as follows: self-splicing fitness, log relative to wild type (ln ratio); higher = more splicing; Tetrahymena group I intron in knt gene, E. coli kanamycin selection, DiMSum; sequences stand for … in CUCUCU…GGAGGGAAAAGUUAUCAGGCAUGCACCUGGUAGCUAGUCUUUAAACCAAUAGAUUGCAUCGGUUUAAAAGGCAAGACCGUCAAAUUGCGGGAAAGGGGUCAACAGCCGUUCAGUACCAAGUCUCAGGGGAAACUUUGAGAUGGCCUUGCAAAGGGUAUGGUAAUAAGCUGACGGACAUGGUCCUAACCACGCAGCCAAGUCCUAAGUCAACAGAUCUUCUGUUGAUAUGGAUGCAGUUCACAGACUAAAUGUCGGUCGGGGAAGAUGUAUUCUUCUCAUAAGAUAUAGUCGGACCUCUCCUUAAUGGGAGCUAGCGGAUGAAGUGAUGCAACACUGGAGCCGCUGGGAACUAAUUUGUAUGCGAAAGUAUAUUGAUUAGUUUUGGAGUACUCGUGGUCG
A digest of the protocol:
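Pooled colonies went to amplicon sequencing on an Illumina HiSeq 2500 after six replicate transformations. The plates were LB agar with 100 μg/mL carbenicillin, 50 μM IPTG and 0.2% rhamnose, with or without 25 μg/mL kanamycin, incubated overnight at 37°C or 30°C. The E. coli BL21(DE3) library had all eight P1ex-region intron nucleotides randomised, the intron placed in the knt kanamycin-resistance gene on pET-22b(+). DiMSum fitness is the error-weighted combination of replicate fold changes, kanamycin against none, normalised to wild type.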

Take ACGGAGCAAUAUUACGACCG: the “self-splicing fitness (ln)” value reads like this: (30 °C) -2.1 ± 0.17; (37 °C) -1.78 ± 0.25.
In the case of GUUAAGCAAUAUUACGCUCG, the “self-splicing fitness (ln)” value by setting is: (30 °C) -0.539 ± 0.13; (37 °C) 0.0474 ± 0.16.
In the case of UACAAGCAAUAUUACGUUAA, the “self-splicing fitness (ln)” value is -3.35 ± 0.14 (30 °C) and -1.74 ± 0.092 (37 °C).
With UUCAAGCAAUAUUACGAGCA, the “self-splicing fitness (ln)” value reads like this: (30 °C) -1.01 ± 0.1; (37 °C) -0.0614 ± 0.12.
The corresponding values for CCUAAGCAAUAUUACGCUUG are -4.18 ± 0.36 and -2.98 ± 0.26.
On to UGUGAGCAAUAUUACGGCGA, for which the “self-splicing fitness (ln)” value is -1.37 ± 0.14 (30 °C) and -1.05 ± 0.15 (37 °C).
The corresponding values for UCAUAGCAAUAUUACGUAAG are -1.66 ± 0.1 and -1.91 ± 0.15.
For CUUCAGCAAUAUUACGUCUA, for the setting “37 °C”, the “self-splicing fitness (ln)” value was -2.38 ± 0.32.
ACGAAGCAAUAUUACGAGCG: the “self-splicing fitness (ln)” value by setting is: (30 °C) -0.87 ± 0.075; (37 °C) -0.411 ± 0.12.
Consider UUUAAGCAAUAUUACGGCGU, for which the “self-splicing fitness (ln)” value (30 °C) is -1.29 ± 0.27 and the “self-splicing fitness (ln)” value (37 °C) is -0.169 ± 0.34.
With UGUAAGCAAUAUUACGCGCA, the “self-splicing fitness (ln)” value was -0.603 ± 0.14 (30 °C) and -0.167 ± 0.17 (37 °C).
As to UUGAAGCAAUAUUACGGGUG, the “self-splicing fitness (ln)” value runs as follows: (30 °C) -0.54 ± 0.048; (37 °C) -0.446 ± 0.066.
The matching figures for GAUCAGCAAUAUUACGAAAC: -0.961 ± 0.39 and 0.628 ± 0.41.
In the case of CCCUAGCAAUAUUACGUUUU, the “self-splicing fitness (ln)” value (30 °C) is -3.59 ± 0.15 and the “self-splicing fitness (ln)” value (37 °C) was -2.2 ± 0.14.
On to CGCUAGCAAUAUUACGACAA, for which the “self-splicing fitness (ln)” value was -2.04 ± 0.18 (30 °C) and -1.83 ± 0.2 (37 °C).
In the case of UCACAGCAAUAUUACGCACA, the “self-splicing fitness (ln)” value runs as follows: (30 °C) -0.445 ± 0.088; (37 °C) -0.743 ± 0.12.
As for AGUCAGCAAUAUUACGUUUU, the “self-splicing fitness (ln)” value is, setting by setting: (30 °C) -1.49 ± 0.074; (37 °C) -0.278 ± 0.088.
On to CUGAAGCAAUAUUACGGCAG, for which the “self-splicing fitness (ln)” value (30 °C) was -0.522 ± 0.11 and the “self-splicing fitness (ln)” value (37 °C) is -0.657 ± 0.14.
For UCGUAGCAAUAUUACGUUUU, the “self-splicing fitness (ln)” value was -2.58 ± 0.17 (30 °C) and -3.25 ± 0.23 (37 °C).
As for CCCUAGCAAUAUUACGGGAA, the “self-splicing fitness (ln)” value (30 °C) was -3.63 ± 0.25 and the “self-splicing fitness (ln)” value (37 °C) was -3.08 ± 0.19.
Regarding AUAAAGCAAUAUUACGUUAA, the “self-splicing fitness (ln)” value (30 °C) was -1.62 ± 0.087 and the “self-splicing fitness (ln)” value (37 °C) was -1.16 ± 0.12.
Turning to UGACAGCAAUAUUACGACAU, the “self-splicing fitness (ln)” value reads like this: (30 °C) -1.209 ± 0.012; (37 °C) -0.373 ± 0.032.
On to GGCCAGCAAUAUUACGUCGA, for which the “self-splicing fitness (ln)” value is -2.72 ± 0.21 (30 °C) and -1.46 ± 0.2 (37 °C).
In the case of GAAGAGCAAUAUUACGUACU, the “self-splicing fitness (ln)” value reads like this: (30 °C) -2.11 ± 0.15; (37 °C) -0.163 ± 0.13.
The matching figures for GCAAAGCAAUAUUACGUCUG: -2.54 ± 0.11 and -1.69 ± 0.085.
As for CGCCAGCAAUAUUACGCGUA, the “self-splicing fitness (ln)” value was -2.72 ± 0.18 (30 °C) and -2.31 ± 0.18 (37 °C).
The corresponding values for ACGAAGCAAUAUUACGUCAG are -3.43 ± 0.19 and -1.1 ± 0.12.
The matching figures for GACGAGCAAUAUUACGACUA: -1.94 ± 0.45 and -0.17 ± 0.37.
The corresponding values for ACAUAGCAAUAUUACGAUAG are -3.38 ± 0.19 and -1.36 ± 0.17.
ACGCAGCAAUAUUACGGUGU: the “self-splicing fitness (ln)” value is, setting by setting: (30 °C) -3.81 ± 0.14; (37 °C) -2.29 ± 0.096.
With CUUGAGCAAUAUUACGAUGC, the “self-splicing fitness (ln)” value is -3.25 ± 0.3 (30 °C) and -2.5 ± 0.41 (37 °C).
As for ACUAAGCAAUAUUACGACCC, the “self-splicing fitness (ln)” value runs as follows: (30 °C) -1.08 ± 0.25; (37 °C) -0.275 ± 0.32.
As for CAGAAGCAAUAUUACGGGGG, the “self-splicing fitness (ln)” value runs as follows: (30 °C) -3.09 ± 0.16; (37 °C) -2.75 ± 0.21.
For ACGCAGCAAUAUUACGCCCU, the “self-splicing fitness (ln)” value is -0.193 ± 0.12 (30 °C) and 0.187 ± 0.12 (37 °C).
As for UCUAAGCAAUAUUACGCGAA, the “self-splicing fitness (ln)” value (30 °C) was -3.03 ± 0.2 and the “self-splicing fitness (ln)” value (37 °C) is -1.69 ± 0.16.
Regarding GUCUAGCAAUAUUACGUCAC, the “self-splicing fitness (ln)” value runs as follows: (30 °C) -2.9 ± 0.24; (37 °C) -3.04 ± 0.43.
Take GCCCAGCAAUAUUACGAACG: the “self-splicing fitness (ln)” value by setting is: (30 °C) -1.79 ± 0.32; (37 °C) -0.725 ± 0.34.
Turning to AACUAGCAAUAUUACGACAG, the “self-splicing fitness (ln)” value reads like this: (30 °C) -1.7 ± 0.14; (37 °C) -0.514 ± 0.13.
For UUCAAGCAAUAUUACGGGAA, the “self-splicing fitness (ln)” value (30 °C) was -1.32 ± 0.11 and the “self-splicing fitness (ln)” value (37 °C) is -0.286 ± 0.094.
For the sequence UCACAGCAAUAUUACGUUUG, the “self-splicing fitness (ln)” value runs as follows: (30 °C) -2.21 ± 0.08; (37 °C) -1.2 ± 0.11.
As for AUAUAGCAAUAUUACGGACU, the “self-splicing fitness (ln)” value is -1.04 ± 0.11 (30 °C) and -0.14 ± 0.16 (37 °C).
The corresponding values for AAAGAGCAAUAUUACGAACU are -1.41 ± 0.18 and -1.14 ± 0.27.
As for AGUCAGCAAUAUUACGGGUA, the “self-splicing fitness (ln)” value by setting is: (30 °C) -2.02 ± 0.15; (37 °C) -1.54 ± 0.14.
The matching figures for GGCAAGCAAUAUUACGAAAU: -0.0122 ± 0.15 and -0.727 ± 0.12.
UUUAAGCAAUAUUACGUAUC: the “self-splicing fitness (ln)” value (37 °C) is -1.84 ± 0.33.
GGUAAGCAAUAUUACGCACG: the “self-splicing fitness (ln)” value runs as follows: (30 °C) 0.408 ± 0.12; (37 °C) -0.102 ± 0.14.
As for GUGUAGCAAUAUUACGGCCA, the “self-splicing fitness (ln)” value runs as follows: (30 °C) 0.628 ± 0.35; (37 °C) -0.349 ± 0.44.
The matching figures for GACAAGCAAUAUUACGUUGA: -2.14 ± 0.09 and -1.48 ± 0.12.
On to GAAUAGCAAUAUUACGUGGG, for which the “self-splicing fitness (ln)” value was -3.86 ± 0.21 (30 °C) and -2.81 ± 0.19 (37 °C).
The corresponding values for AAAGAGCAAUAUUACGUCAG are -4.01 ± 0.36 and -2.29 ± 0.32.
On to UAGGAGCAAUAUUACGGUGA, for which the “self-splicing fitness (ln)” value (37 °C) is -1.08 ± 0.27.
With CUAAAGCAAUAUUACGUCAG, the “self-splicing fitness (ln)” value runs as follows: (30 °C) -0.715 ± 0.064; (37 °C) 0.333 ± 0.1.
The corresponding values for GAAAAGCAAUAUUACGUAAG are -2.23 ± 0.11 and -0.733 ± 0.12.
In the case of CCCAAGCAAUAUUACGGUGA, the “self-splicing fitness (ln)” value (30 °C) was -1.27 ± 0.07 and the “self-splicing fitness (ln)” value (37 °C) was -1.16 ± 0.077.
Consider CCUCAGCAAUAUUACGCAUU, for which the “self-splicing fitness (ln)” value (30 °C) is -3.81 ± 0.19 and the “self-splicing fitness (ln)” value (37 °C) is -2.3 ± 0.22.
Take CGUGAGCAAUAUUACGUCUG: the “self-splicing fitness (ln)” value is -0.656 ± 0.072 (30 °C) and 0.0039 ± 0.094 (37 °C).
On to CGCAAGCAAUAUUACGGCUG, for which the “self-splicing fitness (ln)” value is -1.33 ± 0.065 (30 °C) and 0.0892 ± 0.085 (37 °C).
On to CUUUAGCAAUAUUACGGGUC, for which the “self-splicing fitness (ln)” value (30 °C) is -3.26 ± 0.17 and the “self-splicing fitness (ln)” value (37 °C) is -1.32 ± 0.21.
For the sequence CGGGAGCAAUAUUACGAAAU, the “self-splicing fitness (ln)” value (37 °C) is -1.65 ± 0.44.
With CUCCAGCAAUAUUACGCAAG, the “self-splicing fitness (ln)” value (30 °C) is -3.52 ± 0.26 and the “self-splicing fitness (ln)” value (37 °C) was -1.41 ± 0.18.
Consider GCUUAGCAAUAUUACGCCGU, for which the “self-splicing fitness (ln)” value (30 °C) was -2.31 ± 0.21 and the “self-splicing fitness (ln)” value (37 °C) was -0.553 ± 0.18.
For the sequence GGUUAGCAAUAUUACGUACA, the “self-splicing fitness (ln)” value was -0.759 ± 0.11 (30 °C) and -0.469 ± 0.11 (37 °C).
Turning to CAACAGCAAUAUUACGACGA, the “self-splicing fitness (ln)” value is -0.955 ± 0.075 (30 °C) and 0.0703 ± 0.084 (37 °C).
As for CGACAGCAAUAUUACGAUUC, the “self-splicing fitness (ln)” value was -3.6 ± 0.14 (30 °C) and -0.756 ± 0.08 (37 °C).
The matching figures for AGGCAGCAAUAUUACGGCAA: -0.539 ± 0.069 and -1.11 ± 0.085.
The corresponding values for CCUUAGCAAUAUUACGGCGG are -2.92 ± 0.17 and -2.05 ± 0.21.
The corresponding values for CUAGAGCAAUAUUACGCAGG are -2.12 ± 0.14 and -1.75 ± 0.19.
For UAACAGCAAUAUUACGGUCA, the “self-splicing fitness (ln)” value by setting is: (30 °C) -0.282 ± 0.073; (37 °C) 0.714 ± 0.085.
As for AACGAGCAAUAUUACGACUU, the “self-splicing fitness (ln)” value runs as follows: (30 °C) -0.000737 ± 0.11; (37 °C) -0.7 ± 0.12.
With AAGAAGCAAUAUUACGCACC, the “self-splicing fitness (ln)” value (30 °C) was -1.11 ± 0.12 and the “self-splicing fitness (ln)” value (37 °C) is -0.644 ± 0.15.
For the sequence GUAGAGCAAUAUUACGGCAU, the “self-splicing fitness (ln)” value was -0.0916 ± 0.085 (30 °C) and 0.127 ± 0.12 (37 °C).
As for CGCAAGCAAUAUUACGGCGU, the “self-splicing fitness (ln)” value is -3.52 ± 0.15 (30 °C) and -2.2 ± 0.18 (37 °C).
With UAAAAGCAAUAUUACGGGAG, the “self-splicing fitness (ln)” value was -2.66 ± 0.14 (30 °C) and -1.25 ± 0.11 (37 °C).
On to GAACAGCAAUAUUACGACAA, for which the “self-splicing fitness (ln)” value was -1.24 ± 0.13 (30 °C) and -0.239 ± 0.15 (37 °C).
For the sequence CAAUAGCAAUAUUACGGCGA, the “self-splicing fitness (ln)” value is, setting by setting: (30 °C) -3.93 ± 0.4; (37 °C) -2.03 ± 0.24.
Consider CCUUAGCAAUAUUACGCGGU, for which the “self-splicing fitness (ln)” value (30 °C) was -3.78 ± 0.36.
